The text below walks through data of the Human Domainome abundance scans (Beltran et al. 2025).

B1: Spectrin alpha chain, erythrocytic 1, residues 979 to 1036; numbered along this chain, P02549 (parent)
chain: EQRVMALYDFQARSPREVTMKKGDVLTLLSSINKDWWKVEAADHQGIVPAVYVRRLAH

± gives the uncertainty stated by the source.

In the data set the parent is B1. The experiment in a line: abundance fitness (aPCA) (normalised: wild type 0, dead -1); higher = more abundant; growth selection in yeast, the domain comes from the species named. Conditions: Homo sapiens.
Consider EQRVMALYDFQARSPREVTMKKGDVLTLLSSINKDWWKVEAAAHQGIVPAVYVRRLAH, for which the abundance fitness was -0.314 ± 0.21.

As to EQRVMALYDFQARSPREVTMKKGDVLTLLSSINKDWWKVEAASHQGIVPAVYVRRLAH, the abundance fitness was found to be 0.096 ± 0.17. The figure for EQRVMALYDFQARSPREVTMKKGDVLTLLSSINKDWWKVEAADLQGIVPAVYVRRLAH is -0.692 ± 0.12.

On to EQRVMALYDFQARSPREVTMKKGDVLTLLSSINKDWWKVEAADPQGIVPAVYVRRLAH, for which the abundance fitness is -0.95 ± 0.17. With EQRVMALYDFQARSPREVTMKKGDVLTLLSSINKDWWKVEAADAQGIVPAVYVRRLAH the figure was -0.051 ± 0.13; with EQRVMALYDFQARSPREVTMKKGDVLTLLSSINKDWWKVEAADSQGIVPAVYVRRLAH, 0.03 ± 0.1. With EQRVMALYDFQARSPREVTMKKGDVLTLLSSINKDWWKVEAADTQGIVPAVYVRRLAH the figure was -0.107 ± 0.23; with EQRVMALYDFQARSPREVTMKKGDVLTLLSSINKDWWKVEAADMQGIVPAVYVRRLAH, -0.039 ± 0.28; with EQRVMALYDFQARSPREVTMKKGDVLTLLSSINKDWWKVEAADKQGIVPAVYVRRLAH, 0.555 ± 0.49. The figure for EQRVMALYDFQARSPREVTMKKGDVLTLLSSINKDWWKVEAADCQGIVPAVYVRRLAH is -0.016 ± 0.35; for EQRVMALYDFQARSPREVTMKKGDVLTLLSSINKDWWKVEAADVQGIVPAVYVRRLAH it is -0.156 ± 0.12. As to EQRVMALYDFQARSPREVTMKKGDVLTLLSSINKDWWKVEAADYQGIVPAVYVRRLAH, the abundance fitness was -0.804 ± 0.41. With EQRVMALYDFQARSPREVTMKKGDVLTLLSSINKDWWKVEAADQQGIVPAVYVRRLAH, the abundance fitness worked out at 0.119 ± 0.2. With EQRVMALYDFQARSPREVTMKKGDVLTLLSSINKDWWKVEAADWQGIVPAVYVRRLAH the figure was -0.483 ± 0.23; with EQRVMALYDFQARSPREVTMKKGDVLTLLSSINKDWWKVEAADGQGIVPAVYVRRLAH, 0.292 ± 0.081. For EQRVMALYDFQARSPREVTMKKGDVLTLLSSINKDWWKVEAADHQGIGPAVYVRRLAH, the abundance fitness was -1.09 ± 0.33. With EQRVMALYDFQARSPREVTMKKGDVLTLLSSINKDWWKVEAADHQGIWPAVYVRRLAH the figure was -0.809 ± 0.29. Regarding EQRVMALYDFQARSPREVTMKKGDVLTLLSSINKDWWKVEAADHQGIQPAVYVRRLAH, the abundance fitness is -0.656 ± 0.12. With EQRVMALYDFQARSPREVTMKKGDVLTLLSSINKDWWKVEAADHQGITPAVYVRRLAH the figure was -0.727 ± 0.17; with EQRVMALYDFQARSPREVTMKKGDVLTLLSSINKDWWKVEAADHQGIRPAVYVRRLAH, -0.551 ± 0.19. For EQRVMALYDFQARSPREVTMKKGDVLTLLSSINKDWWKVEAADHQGILPAVYVRRLAH, the abundance fitness is -0.717 ± 0.19. The figure for EQRVMALYDFQARSPREVTMKKGDVLTLLSSINKDWWKVEAADHQGIMPAVYVRRLAH is -0.556 ± 0.36; for EQRVMALYDFQARSPREVTMKKGDVLTLLSSINKDWWKVEAADHQGIAPAVYVRRLAH it is -0.687 ± 0.17; for EQRVMALYDFQARSPREVTMKKGDVLTLLSSINKDWWKVEAADHQGICPAVYVRRLAH it is -0.502 ± 0.29.

In the case of EQRVMALYDFQARSPREVTMKKGDVLTLLSSINKDWWKVEAADHQGIKPAVYVRRLAH, the abundance fitness is -0.56 ± 0.11.

EQRVMALYDFQARSPREVTMKKGDVLTLLSSINKDWWKVEAADHQWIVPAVYVRRLAH: the abundance fitness was -0.452 ± 0.38. With EQRVMALYDFQARSPREVTMKKGDVLTLLSSINKDWWKVEAADHQEIVPAVYVRRLAH the figure was -0.023 ± 0.27. The figure for EQRVMALYDFQARSPREVTMKKGDVLTLLSSINKDWWKVEAADHQLIVPAVYVRRLAH is -0.227 ± 0.17; for EQRVMALYDFQARSPREVTMKKGDVLTLLSSINKDWWKVEAADHQRIVPAVYVRRLAH it is -0.58 ± 0.18. With EQRVMALYDFQARSPREVTMKKGDVLTLLSSINKDWWKVEAADHQVIVPAVYVRRLAH the figure was -1.03 ± 0.49; with EQRVMALYDFQARSPREVTMKKGDVLTLLSSINKDWWKVEAADHQCIVPAVYVRRLAH, -0.361 ± 0.34. For EQRVMALYDFQARSPREVTMKKGDVLTLLSSINKDWWKVEAADHQYIVPAVYVRRLAH, the abundance fitness is -0.897 ± 0.25. With EQRVMALYDFQARSPREVTMKKGDVLTLLSSINKDWWKVEAADHQSIVPAVYVRRLAH the figure was -1.04 ± 0.49; with EQRVMALYDFQARSPREVTMKKGDVLTLLSSINKDWWKVEAADHQKIVPAVYVRRLAH, -0.459 ± 0.37. With EQRVMALYDFQARSPREVTMKKGDVLTLLSSINKDWWKVEAADHQGWVPAVYVRRLAH the figure was 0.461 ± 0.15. With EQRVMALYDFQARSPREVTMKKGDVLTLLSSINKDWWKVEAADHQGLVPAVYVRRLAH the figure was 0.065 ± 0.13; with EQRVMALYDFQARSPREVTMKKGDVLTLLSSINKDWWKVEAADHQGFVPAVYVRRLAH, 0.349 ± 0.21; with EQRVMALYDFQARSPREVTMKKGDVLTLLSSINKDWWKVEAADHQGCVPAVYVRRLAH, -0.226 ± 0.41. As to EQRVMALYDFQARSPREVTMKKGDVLTLLSSINKDWWKVEAADHQGEVPAVYVRRLAH, the abundance fitness is -0.727 ± 0.43.

For the variant EQRVMALYDFQARSPREVTMKKGDVLTLLSSINKDWWKVEAADHQGMVPAVYVRRLAH, the abundance fitness was found to be 0.561 ± 0.11. Take EQRVMALYDFQARSPREVTMKKGDVLTLLSSINKDWWKVEAADHQGYVPAVYVRRLAH: the abundance fitness amounted to 0.304 ± 0.23.

In the case of EQRVMALYDFQARSPREVTMKKGDVLTLLSSINKDWWKVEAADHQGNVPAVYVRRLAH, the abundance fitness was -0.25 ± 0.18.

For the variant EQRVMALYDFQARSPREVTMKKGDVLTLLSSINKDWWKVEAADHQGVVPAVYVRRLAH, the abundance fitness was determined as 0.228 ± 0.16. On to EQRVMALYDFQARSPREVTMKKGDVLTLLSSINKDWWKVEAADHQGTVPAVYVRRLAH, for which the abundance fitness is -0.701 ± 0.42. Turning to EQRVMALYDFQARSPREVTMKKGDVLTLLSSINKDWWKVEAADHQGAVPAVYVRRLAH, the abundance fitness is -0.532 ± 0.32. As for EQRVMALYDFQARSPREVTMKKGDVLTLLSSINKDWWKVEAADHQGSVPAVYVRRLAH, the abundance fitness was -0.659 ± 0.23.
